Results reported in PMC7655957.

Legend:
[1] = target: WT_(ZIP+)/WT_(ZIP−), BICD2_(1–98) heterodimer with C-terminal ZIP+/ZIP− leucine zipper (mouse (cDNA, methods); called human in the results and in the legend of Fig. 1) (UniProt Q921C5); assay: ITC; LIC1_(433–458) peptide titrated into ZIP+/ZIP− BICD2 heterodimers in the cell; 20 mM HEPES (pH 7.5), 100 mM NaCl, 0.5 mM TCEP; temperature given in the figure
[2] = target: Y46D_(ZIP+)/WT_(ZIP−), half-functional BICD2_(1–98) heterodimer with C-terminal ZIP+/ZIP− leucine zipper (mouse (cDNA, methods); called human in the results and in the legend of Fig. 1) (UniProt Q921C5); assay: as above
HOOK3 (Homo sapiens) = HOOK3 (Homo sapiens) (UniProt Q86VS8); details: cited from earlier work
Chain of HOOK3 (Homo sapiens) (Q86VS8 whole entry): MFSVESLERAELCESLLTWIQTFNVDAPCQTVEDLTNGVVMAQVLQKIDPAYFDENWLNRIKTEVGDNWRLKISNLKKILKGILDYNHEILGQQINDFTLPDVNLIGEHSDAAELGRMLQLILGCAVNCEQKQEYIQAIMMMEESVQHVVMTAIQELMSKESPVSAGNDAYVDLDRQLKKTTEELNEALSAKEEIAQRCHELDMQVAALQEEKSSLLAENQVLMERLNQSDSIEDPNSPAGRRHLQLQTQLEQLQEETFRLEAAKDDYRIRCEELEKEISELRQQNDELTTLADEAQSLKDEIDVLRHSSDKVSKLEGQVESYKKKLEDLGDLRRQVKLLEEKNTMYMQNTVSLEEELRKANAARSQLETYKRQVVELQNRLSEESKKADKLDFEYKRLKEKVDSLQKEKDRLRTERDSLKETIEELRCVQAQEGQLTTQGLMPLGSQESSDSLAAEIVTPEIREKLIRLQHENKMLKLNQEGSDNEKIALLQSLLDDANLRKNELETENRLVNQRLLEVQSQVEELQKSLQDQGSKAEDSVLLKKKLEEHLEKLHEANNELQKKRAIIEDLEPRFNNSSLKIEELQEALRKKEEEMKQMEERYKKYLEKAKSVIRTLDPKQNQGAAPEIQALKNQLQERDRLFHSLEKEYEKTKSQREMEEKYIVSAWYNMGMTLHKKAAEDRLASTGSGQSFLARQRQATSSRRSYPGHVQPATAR

HOOK1 (Homo sapiens) = HOOK1 (Homo sapiens) (UniProt Q9UJC3); details: cited from earlier work
Chain of HOOK1 (Homo sapiens) (Q9UJC3 whole entry): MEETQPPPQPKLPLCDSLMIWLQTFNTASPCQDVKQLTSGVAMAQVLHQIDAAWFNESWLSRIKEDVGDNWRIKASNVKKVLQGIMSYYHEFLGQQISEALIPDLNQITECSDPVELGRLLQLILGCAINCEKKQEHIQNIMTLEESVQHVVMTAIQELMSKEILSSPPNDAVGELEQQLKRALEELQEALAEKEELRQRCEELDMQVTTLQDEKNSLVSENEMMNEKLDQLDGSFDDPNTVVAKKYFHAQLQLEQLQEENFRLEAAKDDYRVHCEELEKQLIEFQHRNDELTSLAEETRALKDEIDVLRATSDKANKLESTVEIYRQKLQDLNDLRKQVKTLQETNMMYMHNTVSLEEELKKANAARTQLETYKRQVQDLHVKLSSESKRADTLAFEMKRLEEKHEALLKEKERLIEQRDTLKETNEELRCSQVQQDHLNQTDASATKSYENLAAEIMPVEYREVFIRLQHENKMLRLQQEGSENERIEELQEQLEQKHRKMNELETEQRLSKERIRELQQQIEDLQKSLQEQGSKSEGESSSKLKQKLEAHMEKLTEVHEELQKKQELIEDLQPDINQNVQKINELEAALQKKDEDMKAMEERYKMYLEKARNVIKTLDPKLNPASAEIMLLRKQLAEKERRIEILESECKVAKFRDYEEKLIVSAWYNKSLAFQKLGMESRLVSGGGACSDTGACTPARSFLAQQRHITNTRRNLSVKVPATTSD

Chain of LIC1_(433–458), amphipathic helix of the dynein light intermediate chain-1 (Q9Y6G9 433-458): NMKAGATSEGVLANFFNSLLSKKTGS
Chain of LIC1 (Q9Y6G9 whole entry): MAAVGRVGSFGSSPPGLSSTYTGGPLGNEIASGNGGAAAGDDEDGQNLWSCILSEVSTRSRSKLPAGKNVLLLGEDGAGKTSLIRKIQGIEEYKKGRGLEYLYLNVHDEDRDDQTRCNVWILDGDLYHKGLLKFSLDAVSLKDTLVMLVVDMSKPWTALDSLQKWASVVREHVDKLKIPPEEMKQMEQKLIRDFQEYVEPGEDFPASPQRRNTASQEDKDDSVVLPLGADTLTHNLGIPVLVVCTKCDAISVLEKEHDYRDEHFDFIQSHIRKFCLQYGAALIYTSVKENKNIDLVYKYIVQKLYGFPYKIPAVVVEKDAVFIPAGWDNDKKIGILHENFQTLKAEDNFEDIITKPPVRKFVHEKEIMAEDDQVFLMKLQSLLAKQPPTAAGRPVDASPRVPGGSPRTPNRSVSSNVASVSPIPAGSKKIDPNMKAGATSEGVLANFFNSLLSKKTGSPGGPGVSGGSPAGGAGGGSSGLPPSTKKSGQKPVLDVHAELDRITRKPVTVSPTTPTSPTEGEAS

Kd [1] [µM]	stoichiometry N [1]	Kd [2] [µM]	stoichiometry N [2]	Substance	Kd (HOOK3 (Homo sapiens)) [µM]	Kd (HOOK1 (Homo sapiens)) [µM]
6.8	2	6.2	1.1	LIC1_(433–458), amphipathic helix of the dynein light intermediate chain-1 (from UniProt Q9Y6G9 433-458) (peptide)	–	–
–	–	–	–	LIC1 (from UniProt Q9Y6G9)	6.3	15.7
